The source of these data is US20250179208A1 (ZONHON BIOPHARMA INSTITUTE, published 2025).

Some results are limits rather than exact numbers.

Experiment [1] deals with T1, CD26 protein (recombinant human CD26) (human, UniProt P27487 29-766, limits assumed).
T1 construct: Amine-coupled, biotinylated or HRP-labeled according to the assay; also called DPP4; rCD26
The experiment is described as follows: BLI (Octet QKe), CD26 amine-coupled on AR2G sensor, antibody at 181.8 nM. Here is the method: The affinity of the chimeric antibody to the antigen protein CD26 was detected by Fortebio Intermolecular Interaction Octet QKe instrument. First, the amino-coupled biosensor AR2G was activated with EDC/s-NHS, and the activated biosensor AR2G was solidified in CD26 protein solution diluted with 10 mM sodium acetate (pH 5.0) solution. The biosensor solidified with CD26 was quenched in 1M ethanolamine (pH8.5) solution. Then equilibrated in 1× kinetic solution. After equilibration, it was bound to a humanized bispecific antibody solution. It was dissociated in 1× kinetic solution. Fortebio Data Analysis 8.0 software was used to analyze the data and calculate the affinity constant (KD), association rate constant (kon) and dissociation rate constant (kdis). The Response value represents the number of antibody molecules that can bind to the antigen. Kon indicates the binding speed of the antibody to the corresponding receptor. Kdis represents the dissociation speed of antibody from corresponding receptor. NA indicates no valid data.
On the technique in general: Biolayer interferometry detects binding as a change in optical thickness at a sensor tip.

Experiment [2] has as its target T1, CD26 protein (recombinant human CD26). As to the kind of experiment: BLI (Octet), biotinylated CD26 on SA sensor, antibody 31.3-500 nM. How it is done:
CD26 protein was biotinylated with EZ-link NHS-PEG12-Biotin. Biotinylated CD26 protein was immobilized to SA biosensor. Equilibrated in 1×Kinetics solution. The CD26 immobilized to SA biosensor was combined with the antibody solution to be detected. The concentration gradients of the antibody solution were 31.3 nM, 62.5 nM, 125 nM, 250 nM, and 500 nM. The biosensor was dissociated in 1×Kinetics solution. Fortebio Data Analysis 8.0 software was used for data analysis and affinity constant values were calculated.

Another experiment deals with T2, CD3 protein.
T2 chain 1: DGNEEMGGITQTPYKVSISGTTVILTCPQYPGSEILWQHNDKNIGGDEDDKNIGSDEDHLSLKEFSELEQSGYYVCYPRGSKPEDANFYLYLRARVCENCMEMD
T2 chain 2: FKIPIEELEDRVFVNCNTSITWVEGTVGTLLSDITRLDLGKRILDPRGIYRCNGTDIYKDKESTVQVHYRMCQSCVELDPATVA
The experiment is described as follows: BLI (Octet), biotinylated CD3 on SA sensor, antibody 200-1600 nM. Here is the method: CD3 protein was biotinylated with EZ-link NHS-PEG12-Biotin. Biotinylated CD3 protein was immobilized to SA biosensor. Equilibrated in 1×Kinetics solution. The CD3 immobilized to SA biosensor was combined with the humanized bispecific antibody solution to be detected. The concentration gradient of humanized bispecific antibody was 200 nM, 400 nM, 800 nM, and 1600 nM. The biosensor was dissociated in 1×Kinetics solution. Fortebio Data Analysis 8.0 software was used for data analysis and affinity constant values were calculated.

Experiment [3] has as its target CD26 on CD26 positive human tumor cells (human, UniProt P27487 1-766). As to the kind of experiment: cell-based or functional assay.

B1: 17G131 (anti-CD26-CD3 chimeric bispecific antibody derived from No. 51 mouse antibody) (bispecific antibody)
chain: DIQMTQSPASLSASVGESVTITCRASENIYSYLTWYQQKQGKSPQLLVYNAKTLTEDVPSRFSGSGSGTQFSLKINSLQPEDFGSYYCQHHYGSPRTFGGGTKLEIKGGGGSGGGGSGGGGSQAQLQQSGAELMKPGASVKISCKATGYTFSNFWIEWVVQRPGHGLEWIGEILPGRGTTNYNEKFRGKATFTADTSSDTAYIQLSSLTSEDSAVYYCARERFYGSKYFDVWGAGTTVTVSSGGGGSDVQLVQSGAEVKKPGASVKVSCKASGYTFTRYTMHWVRQAPGQGLEWIGYINPSRGYTNYADSVKGRFTITTDKSTSTAYMELSSLRSEDTATYYCARYYDDHYCLDYWGQGTTVTVSSGGGGSGGGGSGGGGSDIVLTQSPATLSLSPGERATLSCRASQSVSYMNWYQQKPGKAPKRWIYDTSKVASGVPARFSGSGSGTDYSLTINSLEAEDAATYYCQQWSSNPLTFGGGTKVEIK
notes: also called chimeric BiTE
What is called Kd is a measure of binding affinity in units of concentration. What is called koff is the first-order rate constant of dissociation. In general, kon refers to the rate constant with which the complex forms. Consider B1, for which, in experiment [1], the Kd was 43.6 nM, the Response was 0.15, the koff came to 0.000829 s⁻¹ and the kon was 19000 M⁻¹ s⁻¹.

B2: 19G296 (anti-CD26-CD3 humanized bispecific antibody derived from No. 212 mouse antibody) (bispecific antibody)
chain: QVQLQESGPGLVKPSETLSLTCTVSGDSITSGYWHWIRQPPGKGLEWIGYINYSGYTYYNPSLKSRFTISRDTSKNQYYLQLNSVTAEDTAVYYCTSERNWGAFAYWGQGTLVTVSSGGGGSGGGGSGGGGSENVLTQSPATLSASPGERATLSCRASSSVISTYLHWYQQKPGQAPKLWIYSTSNLASGVPARFSGSGSGTDYTLTISSVEPEDFAVYYCQQFSGYPYTFGQGTKLEIKGGGGSDVQLVQSGAEVKKPGASVKVSCKASGYTFTRYTMHWVRQAPGQGLEWIGYINPSRGYTNYADSVKGRFTITTDKSTSTAYMELSSLRSEDTATYYCARYYDDHYCLDYWGQGTTVTVSSGGGGSGGGGSGGGGSDIVLTQSPATLSLSPGERATLSCRASQSVSYMNWYQQKPGKAPKRWIYDTSKVASGVPARFSGSGSGTDYSLTINSLEAEDAATYYCQQWSSNPLTFGGGTKVEIK
As for B2, in experiment [2], the Kd stood at 14.8 nM, the koff was determined as 0.0014 s⁻¹ and the kon turned out to be 94500 M⁻¹ s⁻¹. In the experiment with CD3 protein, this molecule came in with a Kd of 9.67 nM, a koff of 0.00225 s⁻¹ and a kon of 233000 M⁻¹ s⁻¹.

B3: 19G297 (anti-CD26-CD3 humanized bispecific antibody derived from No. 212 mouse antibody) (bispecific antibody)
chain: EVQLQESGPGLVKPSGTLSLTCAVSGDSITSGYWHWIRQAPGKGLEWVGYINYSGYTYYNPSLKSRFTISRDTSKNQYYLQLNSVTAEDTAVYYCTSERNWGAFAYWGQGTLVTVSSGGGGSGGGGSGGGGSENVLTQSPASLSASPGERVTITCRASSSVISTYLHWYQQKPGQAPKLWIYSTSNLASGVPARFSGSGSGTDYTLTISSVEPEDFATYYCQQFSGYPYTFGQGTKLEIKGGGGSDVQLVQSGAEVKKPGASVKVSCKASGYTFTRYTMHWVRQAPGQGLEWIGYINPSRGYTNYADSVKGRFTITTDKSTSTAYMELSSLRSEDTATYYCARYYDDHYCLDYWGQGTTVTVSSGGGGSGGGGSGGGGSDIVLTQSPATLSLSPGERATLSCRASQSVSYMNWYQQKPGKAPKRWIYDTSKVASGVPARFSGSGSGTDYSLTINSLEAEDAATYYCQQWSSNPLTFGGGTKVEIK
Take B3: in experiment [2], the Kd came to 4.4 nM, the koff turned out to be 0.00037 s⁻¹ and the kon worked out at 91800 M⁻¹ s⁻¹. Also, in the experiment with CD3 protein, the Kd is 10.1 nM, the koff was found to be 0.00367 s⁻¹ and the kon turned out to be 362000 M⁻¹ s⁻¹.

B4: 19G292 (anti-CD26-CD3 humanized bispecific antibody derived from No. 62 mouse antibody) (bispecific antibody)
chain: QVQLLQSGAEVVKPGASVKISCKASGFNIKDTYIYWVKQPTGQGLEWIGRIEPMNGNTKYDPKFQGRFTMTANTSINTAYLQLSSLTSEDTAVYYCSRGGWLLLYVMDYWGQGTTVTVSSGGGGSGGGGSGGGGSDIVMTQSASSLPVTPGESVSISCRSDKSLLHSNGNTYLYWFLQRPGQSPQVLIYRMSNLASGVPDRFSGSGSGTEFTLTISRVEAEDVGVYYCFQQLEYPYTFGPGTKLEIKGGGGSDVQLVQSGAEVKKPGASVKVSCKASGYTFTRYTMHWVRQAPGQGLEWIGYINPSRGYTNYADSVKGRFTITTDKSTSTAYMELSSLRSEDTATYYCARYYDDHYCLDYWGQGTTVTVSSGGGGSGGGGSGGGGSDIVLTQSPATLSLSPGERATLSCRASQSVSYMNWYQQKPGKAPKRWIYDTSKVASGVPARFSGSGSGTDYSLTINSLEAEDAATYYCQQWSSNPLTFGGGTKVEIK
Consider B4, for which, in experiment [2], the Kd was less than 0.001 nM and the kon came out at 65800 M⁻¹ s⁻¹. In the experiment with CD3 protein, the Kd is 0.568 nM, the koff worked out at 0.000107 s⁻¹ and the kon is 188000 M⁻¹ s⁻¹. For the same molecule, in experiment [3], the “IC50 of antibody mediated PBMC cytotoxicity against 786-0 cells” value (“IC50 … against 786-0 cells” below) is 0.805 ng/mL, the “IC50 of antibody mediated PBMC cytotoxicity against NCI-H226 cells” value (from here on “IC50 … against NCI-H226 cells”) was determined as 1.1 ng/mL, the “IC50 of antibody mediated PBMC cytotoxicity against OS-RC-2 cells” value (from here on “IC50 … against OS-RC-2 cells”) was 1.04 ng/mL and the “IC50 of antibody mediated PBMC cytotoxicity against PC-3 cells” value (“IC50 … against PC-3 cells” for short) worked out at 0.339 ng/mL.

B5: 18G272 (anti-CD26-CD3 humanized bispecific antibody derived from No. 62 mouse antibody) (bispecific antibody)
chain: DIVMTQSASSLPVTPGEPASISCRSDKSLLHSNGNTYLYWFLQKPGQSPQVLIYRMSNLASGVPDRFSGSGSGTDFTLTISRVEAEDVGVYYCFQQLEYPYTFGQGTKLEIKGGGGSGGGGSGGGGSQVQLVQSGAEVVKPGASVKISCKASGFNIKDTYIYWVRQRTGQGLEWIGRIEPMNGNTKYDPKFQGRLTMTANTSKNTAYLQLSSLTSEDTAVYYCSRGGWLLLYVMDYWGQGTTVTVSSGGGGSDVQLVQSGAEVKKPGASVKVSCKASGYTFTRYTMHWVRQAPGQGLEWIGYINPSRGYTNYADSVKGRFTITTDKSTSTAYMELSSLRSEDTATYYCARYYDDHYCLDYWGQGTTVTVSSGGGGSGGGGSGGGGSDIVLTQSPATLSLSPGERATLSCRASQSVSYMNWYQQKPGKAPKRWIYDTSKVASGVPARFSGSGSGTDYSLTINSLEAEDAATYYCQQWSSNPLTFGGGTKVEIK
Take B5: in experiment [3], the “IC50 … against 786-0 cells” value came to 2.27 ng/mL, the “IC50 … against NCI-H226 cells” value is 0.143 ng/mL, the “IC50 … against OS-RC-2 cells” value amounted to 0.284 ng/mL and the “IC50 … against PC-3 cells” value was 0.379 ng/mL.

B6: 17G29 (anti-CD26-CD3 humanized bispecific antibody derived from YS110) (bispecific antibody)
chain: EVQLVESGAGVKQPGGTLRLTCTASGFSLTTYGVHWVRQAPGKGLEWVGVIWGDGRTDYDAAFMSRVTISKDTSKSTVYLQMNSLRAEDTAVYYCMRNRHDWFDYWGQGTTVTVSSGGGGSGGGGSGGGGSDILLTQSPSSLSATPGERATITCRASQGIRNNLNWYQQKPGQAPRLLIYYSSNLQSGVPSRFSGSGSGTDFTLTISRLQPEDVAAYYCQQSIKLPFTFGSGTKVEIKGGGGSDVQLVQSGAEVKKPGASVKVSCKASGYTFTRYTMHWVRQAPGQGLEWIGYINPSRGYTNYADSVKGRFTITTDKSTSTAYMELSSLRSEDTATYYCARYYDDHYCLDYWGQGTTVTVSSGGGGSGGGGSGGGGSDIVLTQSPATLSLSPGERATLSCRASQSVSYMNWYQQKPGKAPKRWIYDTSKVASGVPARFSGSGSGTDYSLTINSLEAEDAATYYCQQWSSNPLTFGGGTKVEIK
notes: also called positive control
Consider B6, for which, in experiment [2], the Kd stood at 1.18 nM, the koff came to 0.000216 s⁻¹ and the kon was found to be 183000 M⁻¹ s⁻¹. Besides, binding with CD3 protein was characterised by a dissociation constant (Kd) of 12.2 nM. For the same molecule, in experiment [3], the “IC50 … against 786-0 cells” value is 1.03 ng/mL, the “IC50 … against NCI-H226 cells” value was determined as 0.918 ng/mL, the “IC50 … against OS-RC-2 cells” value is 0.958 ng/mL and the “IC50 … against PC-3 cells” value came out at 1.14 ng/mL.

B7: 19G293 (anti-CD26-CD3 humanized bispecific antibody derived from No. 62 mouse antibody) (bispecific antibody)
chain: QVQLVQSGAELVKPGASVKLSCKASGFNIKDTYIYWVRQAPGQGLEWIGRIEPMNGNTKYDPKFQGRVTMTANTSINTAYLELSSLRSEDTAVYYCSRGGWLLLYVMDYWGQGTLVTVSSGGGGSGGGGSGGGGSDIVMTQSPLSLSVTPGEPASISCRSDKSLLHSNGNTYLYWFLQKPGQSPQVLIYRMSNLASGVPDRFSGSGSGTDFTLKISRVEAEDVGVYYCFQQLEYPYTFGQGTKLEIKGGGGSDVQLVQSGAEVKKPGASVKVSCKASGYTFTRYTMHWVRQAPGQGLEWIGYINPSRGYTNYADSVKGRFTITTDKSTSTAYMELSSLRSEDTATYYCARYYDDHYCLDYWGQGTTVTVSSGGGGSGGGGSGGGGSDIVLTQSPATLSLSPGERATLSCRASQSVSYMNWYQQKPGKAPKRWIYDTSKVASGVPARFSGSGSGTDYSLTINSLEAEDAATYYCQQWSSNPLTFGGGTKVEIK
For B7, in experiment [2], the Kd is less than 0.001 nM and the kon is 54600 M⁻¹ s⁻¹. In the experiment with CD3 protein, this molecule showed a Kd of 1.73 nM, a koff of 0.000571 s⁻¹ and a kon of 331000 M⁻¹ s⁻¹. Besides, in experiment [3], the “IC50 … against 786-0 cells” value is 0.974 ng/mL, the “IC50 … against NCI-H226 cells” value turned out to be 0.405 ng/mL, the “IC50 … against OS-RC-2 cells” value was 2.25 ng/mL and the “IC50 … against PC-3 cells” value is 0.565 ng/mL.
